Article PMC3928310, “Model of a DNA-Protein Complex of the Architectural Monomeric Protein MC1 from Euryarchaea”
Where a chain is given by its changes, count along the chain named.

Experiments:
Experiment in all cases: EMSA; EMSA: 10 mM Tris-HCl pH 7.5, 150 mM NaCl, 1 mM EDTA, 15 ug/ml BSA, 8% glycerol, 15 min at 20 C, 0.1 nM DNA, TBE gel; NMR PRE: 10 mM phosphate pH 6, 100 mM NaCl, 10% D2O
Conditions in all cases: protein: recombinant; label: 5'-32P on one strand; blunt
MC1 R25A = target: T1, MC1 R25A (Methanosarcina thermophila CHTI55, UniProt P12770 1-93, R25A)
T1 sequence: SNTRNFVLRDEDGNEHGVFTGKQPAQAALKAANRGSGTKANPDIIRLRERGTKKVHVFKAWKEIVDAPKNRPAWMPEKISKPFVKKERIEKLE

MC1 W74F = target: T2, MC1 W74F (Methanosarcina thermophila CHTI55, UniProt P12770 1-93, W74F)
T2 sequence: T1 sequence with A25R, W74F

MC1 I89A = target: T3, MC1 I89A (Methanosarcina thermophila CHTI55, UniProt P12770 1-93, I89A)
T3 sequence: T1 sequence with A25R, I89A

MC1 R71A = target: T4, MC1 R71A (Methanosarcina thermophila CHTI55, UniProt P12770 1-93, R71A)
T4 sequence: T1 sequence with A25R, R71A

MC1 P72A = target: T5, MC1 P72A (Methanosarcina thermophila CHTI55, UniProt P12770 1-93, P72A)
T5 sequence: T1 sequence with A25R, P72A

MC1 R25Q = target: T6, MC1 R25Q (Methanosarcina thermophila CHTI55, UniProt P12770 1-93, R25Q)
T6 sequence: T1 sequence with A25Q

MC1 Q23E = target: T7, MC1 Q23E (Methanosarcina thermophila CHTI55, UniProt P12770 1-93, Q23E)
T7 sequence: T1 sequence with Q23E, A25R

B1: 26 bp EMSA duplex (dsDNA)
DNA 1: GCCTCAAAAACACACACCCCCGACAG
DNA 2: CTGTCGGGGGTGTGTGTTTTTGAGGC
Kd (MC1 R25A): 161 ± 14 nM | Kd (MC1 W74F): 8.4 ± 1 nM | Kd (MC1 I89A): 15.4 ± 2 nM | Kd (MC1 R71A): 3.6 ± 0.2 nM | Kd (MC1 P72A): 4.2 ± 0.5 nM | Kd (MC1 R25Q): 552 ± 34 nM | Kd (MC1 Q23E): 9.05 ± 2 nM
